In patent publication US20220088195A1, “Prevention or mitigation of T-cell bispecific antibody-related adverse effects” (Hoffmann-La Roche Inc., priority 2020, published 2022):

Tested on: MKN45 NLR target cells
Assay: Reversibility killing assay with two and three stimulations (OFF/ON, ON/OFF/ON), MKN45 NLR + CEA-TCB, Incucyte
Assay type: cell-based, human
Conditions: 1 nM CEA-TCB, no dasatinib
Protocol: FIG. 16. In vitro killing assay set-up and timelines. PBMCs were stimulated on MKN45 NLR (E:T=10:1) target cells with 1 nM CEA-TCB for 96 hours. Activated PBMCs were washed and restimulated on new MKN45 NLR target cells (E:T=10:1) with 1 nM CEA-TCB in the presence of 25 nM dasatinib for 72 hours. Activated PBMCs were washed to remove dasatinib and restimulated on new MKN45 NLR target cells (E:T=10:1) with 1 nM CEA-TCB (“ON/OFF/ON”, see upper row of table), or vice versa (“OFF/ON/OFF”, see lower row of table). Killing was followed by Incucyte®.
FIG. 17. Real time killing of MKN45 NLR target cells by CEA-TCB in the presence of 25 nM dasatinib (0-72 h) upon first stimulation and in the absence of 25 nM dasatinib (96-170 h) upon restimulation, in the assay of FIG. 16 (“OFF/ON”).
FIG. 19. Real time killing of MKN45 NLR target cells by CEA-TCB in the assay of FIG. 16 (“ON/OFF/ON”).
FIG. 21. CEA-TCB mediated target cell killing. (A) PBMCs were stimulated on MKN45 NLR (E:T=10:1) target cells with 1 nM CEA-TCB for 96 hours in the presence and absence of dasatinib. (B) Activated PBMCs were washed to remove dasatinib and restimulated on new MKN45 NLR target cells (E:T=10:1) with 1 nM CEA-TCB. Killing was followed by Incucyte®.
We then verified if dasatinib's effect is reversible upon its removal. Therefore we set-up a killing assay with two and three stimulations in the presence and absence of dasatinib and followed the killing kinetics using an Incucyte® system (FIG. 16). After each stimulation, effector cells were washed and re-stimulated on fresh MKN45 NLR target cells with 1 nM CEA TCB in the presence and absence of dasatinib allowing to mimic OFF/ON switch and ON/OFF/ON switch.
Lastly, we evaluated if the effect of dasatinib was reversible on activated T cells. Consequently, we supplemented the media with 25 nM dasatinib upon the second stimulation with 1 nM CEA-TCB to prevent killing from activated T cells and then removed the dasatinib upon third stimulation with 1 nM CEA-TCB to verify if killing would be restored. […] We concluded that the effect of dasatinib in the prevention of T cell activation and cytotoxicity is reversible.
For T-cell engaging antibodies, cytokine release peaks are higher upon the first treatment than after subsequent treatments. We were curious to see if low doses of dasatinib could prevent cytokine release while minimally affecting TCB-efficacy upon first stimulation. In killing assays as described in FIG. 16, the cytokine levels upon first treatment with 1 nM CEA-TCB in the presence of 6.25 nM and 12.5 nM dasatinib and upon second treatment with 1 nM CEA-TCB in the absence of dasatinib were measured in the supernatants. […] Its removal upon second stimulation may also balance the cytokine release and restore TCB-induced cytotoxicity due to the reversibility properties of dasatinib.

B1: CEA-TCB: T cell bispecific antibody binding CEA and CD3 (SEQ ID NOs 28-47) (antibody, chains of the INN, looked up, V domains shown)
VH: QVQLVQSGAEVKKPGASVKVSCKASGYTFTEFGMNWVRQAPGQGLEWMGWINTKTGEATYVEEFKGRVTFTTDTSTSTAYMELRSLRSDDTAVYYCARWDFAYYVEAMDYWGQGTTVTVSS
VL: DIQMTQSPSSLSASVGDRVTITCKASAAVGTYVAWYQQKPGKAPKLLIYSASYRKRGVPSRFSGSGSGTDFTLTISSLQPEDFATYYCHQYYTYPLFTFGQGTKLEIK
VH2: QVQLVQSGAEVKKPGASVKVSCKASGYTFTEFGMNWVRQAPGQGLEWMGWINTKTGEATYVEEFKGRVTFTTDTSTSTAYMELRSLRSDDTAVYYCARWDFAYYVEAMDYWGQGTTVTVSS
VL2: QAVVTQEPSLTVSPGGTVTLTCGSSTGAVTTSNYANWVQEKPGQAFRGLIGGTNKRAPGTPARFSGSLLGGKAALTLSGAQPEDEAEYYCALWYSNLWVFGGGTKLTVL
  killing of MKN45 cells after first stimulation: triggered the killing
